# Measured values: IntAct's records for PubMed 22114287
# B1: Platelet-activating factor acetylhydrolase IB subunit beta (Mus musculus), P63005 (parent)
# chain: MVLSQRQRDELNRAIADYLRSNGYEEAYSVFKKEAELDMNEELDKKYAGLLEKKWTSVIRLQKKVMELESKLNEAKEEFTSGGPLGQKRDPKEWIPRPPEKYALSGHRSPVTRVIFHPVFSVMVSASEDATIKVWDYETGDFERTLKGHTDSVQDISFDHSGKLLASCSADMTIKLWDFQGFECIRTMHGHDHNVSSVAIMPNGDHIVSASRDKTIKMWEVQTGYCVKTFTGHREWVRMVRPNQDGTLIASCSNDQTVRVWVVATKECKAELREHEHVVECISWAPESSYSSISEATGSETKKSGKPGPFLLSGSRDKTIKMWDVSTGMCLMTLVGHDNWVRGVLFHSGGKFILSCADDKTLRVWDYKNKRCMKTLNAHEHFVTSLDFHKTAPYVVTGSVDQTVKVWECR
# partner: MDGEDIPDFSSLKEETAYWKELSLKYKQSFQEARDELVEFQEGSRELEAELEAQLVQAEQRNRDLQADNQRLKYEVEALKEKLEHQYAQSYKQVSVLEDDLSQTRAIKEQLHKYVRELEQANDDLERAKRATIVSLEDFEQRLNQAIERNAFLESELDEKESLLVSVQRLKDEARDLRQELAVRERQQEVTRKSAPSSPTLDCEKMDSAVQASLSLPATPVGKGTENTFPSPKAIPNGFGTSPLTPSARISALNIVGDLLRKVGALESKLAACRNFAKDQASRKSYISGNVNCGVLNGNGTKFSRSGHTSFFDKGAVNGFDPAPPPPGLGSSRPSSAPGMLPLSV
# Variants of: B1
# Conditions: with ndel1_human NDEL1, Q9GZM8
row,Variant,effect of a mutation on the interaction
1,MVLSQRQRDELNRAIADYLRSNGYEEAYSVFKKEAELDMNEELDKKYAGLLEKKWTSVIRLQKKVMELESKLNEAKEEFTSGGPLGQKRDPKEWIPRPPEKYALSGHRSPVTRVIFHPVFSVMVSASEDATIKVWDYETGDFERTLKGHTDSVQDISFDHSGKLLASCSADMTIKLWDFQGFECIRTMHGHDHNVSSVAIMPNGDHIVSASADKTIKMWEVQTGYCVKTFTGHREWVRMVRPNQDGTLIASCSNDQTVRVWVVATKECKAELREHEHVVECISWAPESSYSSISEATGSETKKSGKPGPFLLSGSRDKTIKMWDVSTGMCLMTLVGHDNWVRGVLFHSGGKFILSCADDKTLRVWDYKNKRCMKTLNAHEHFVTSLDFHKTAPYVVTGSVDQTVKVWECR [R212A],disrupting interaction
2,MVLSQRQRDELNRAIADYLRSNGYEEAYSVFKKEAELDMNEELDKKYAGLLEKKWTSVIRLQKKVMELESKLNEAKEEFTSGGPLGQKRDPKEWIPRPPEKYALSGHRSPVTRVIFHPVFSVMVSASEDATIKVWDYETGDFERTLAGHTDSVQDISFDHSGKLLASCSADMTIKLWDFQGFECIRTMHGHDHNVSSVAIMPNGDHIVSASRDKTIKMWEVQTGYCVKTFTGHREWVRMVRPNQDGTLIASCSNDQTVRVWVVATKECKAELREHEHVVECISWAPESSYSSISEATGSETKKSGKPGPFLLSGSRDKTIKMWDVSTGMCLMTLVGHDNWVRGVLFHSGGKFILSCADDKTLRVWDYKNKRCMKTLNAHEHFVTSLDFHKTAPYVVTGSVDQTVKVWECR [K147A],with no effect
